This is an account of results in US6586187B1, “Methods for solid phase combinatorial synthesis of integrin inhibitors” (Wyeth, priority 1999, dated 2003).

Positions of bridges follow the written chain, without caps; N, C: chain ends. No end group written: not given here.

Experiment [1] has as its target Vitronectin Receptor (αvβ3) (Homo sapiens, UniProt P05106+P06756). Description: Vitronectin Receptor (αvβ3) Binding Assay. Particulars: at 100 μM; 125I-Echistatin, 512P5 cell membranes.
Another experiment deals with osteoclasts. Description: Osteoclast Pitting Assay. Particulars: neonatal rat osteoclasts on bovine cortical bone slices. It is filed as cell-based. As for the experimental part:
The assay is conduct ed as described in Murrills and Dempster (1990) Bone 11:333-344. Briefly, 4×4×0.2 mm slices of devitalized bovine cortical bone are numbered, placed in the wells of 96-well culture plates and wetted with 100 ul of Medium 199 containing Hanks salts, 10 mM HEPES, pH 7.0 (Medium 199/Hanks). Bone cell suspensions containing osteoclasts are prepared by mincing the long bones of neonatal rats (Sprague-Dawley , 4-6 days old) in Medium 199/Hanks. 100 uL of the suspension are then plated onto each slice and incubated 30 minutes to allow osteoclasts to adhere. The slices are rinsed to remove non-adherent cells and incubated 24 h in Medium 199 containing Earle's salts, 10 mM HEPES and 0.7 g/L NaHCO3, which equilibrates at pH 6.9 in a 5% CO2 atmosphere. At this pH the adherent osteoclasts excavate an adequate number of resorption pits for assay purposes. Slices are fixed in 2.5% glutaraldehyde and osteoclasts counted following tartrate-resistant acid phosphatase staining. […] Resorption pits are quantified by manually counting.
The experiments are conducted according to a block design with osteoclasts from each animal exposed to each treatment. […] Several parameters are recorded on a “per slice” basis: number of pits, number of osteoclasts, number of pits per osteoclast, number of fibroblast-like bone cells. […] IC50s are calculated for active compounds using dose-response curves.

Sequence of Vitronectin Receptor (αvβ3) (P06756 31-889 limits assumed): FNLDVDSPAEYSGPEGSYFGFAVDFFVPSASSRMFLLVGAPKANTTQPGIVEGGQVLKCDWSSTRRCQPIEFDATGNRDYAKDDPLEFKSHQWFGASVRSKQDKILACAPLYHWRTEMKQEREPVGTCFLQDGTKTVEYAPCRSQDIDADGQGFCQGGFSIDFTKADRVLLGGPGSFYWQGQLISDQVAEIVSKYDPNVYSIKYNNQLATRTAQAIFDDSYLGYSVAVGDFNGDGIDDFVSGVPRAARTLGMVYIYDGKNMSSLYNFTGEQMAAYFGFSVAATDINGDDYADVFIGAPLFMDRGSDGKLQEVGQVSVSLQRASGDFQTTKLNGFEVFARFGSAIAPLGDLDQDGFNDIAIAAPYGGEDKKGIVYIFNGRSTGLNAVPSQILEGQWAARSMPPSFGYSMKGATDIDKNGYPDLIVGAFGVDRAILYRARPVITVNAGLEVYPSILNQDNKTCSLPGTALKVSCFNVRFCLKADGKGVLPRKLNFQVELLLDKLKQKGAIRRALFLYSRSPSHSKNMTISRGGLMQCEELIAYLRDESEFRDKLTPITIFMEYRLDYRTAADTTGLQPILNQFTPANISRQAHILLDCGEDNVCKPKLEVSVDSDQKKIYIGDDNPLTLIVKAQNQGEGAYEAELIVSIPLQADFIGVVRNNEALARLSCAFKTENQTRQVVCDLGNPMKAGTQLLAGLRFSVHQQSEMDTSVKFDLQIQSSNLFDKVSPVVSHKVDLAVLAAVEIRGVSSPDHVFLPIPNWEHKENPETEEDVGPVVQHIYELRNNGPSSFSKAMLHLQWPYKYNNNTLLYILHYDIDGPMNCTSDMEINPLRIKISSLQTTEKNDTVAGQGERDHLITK
Sequence of Vitronectin Receptor (αvβ3) (P06756 891-1048 limits assumed): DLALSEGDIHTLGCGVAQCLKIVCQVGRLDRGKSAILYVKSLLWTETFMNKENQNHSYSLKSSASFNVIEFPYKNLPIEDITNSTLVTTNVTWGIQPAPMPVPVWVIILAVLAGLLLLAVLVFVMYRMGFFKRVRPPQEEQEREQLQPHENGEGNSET
Sequence of Vitronectin Receptor (αvβ3) (P05106 27-788): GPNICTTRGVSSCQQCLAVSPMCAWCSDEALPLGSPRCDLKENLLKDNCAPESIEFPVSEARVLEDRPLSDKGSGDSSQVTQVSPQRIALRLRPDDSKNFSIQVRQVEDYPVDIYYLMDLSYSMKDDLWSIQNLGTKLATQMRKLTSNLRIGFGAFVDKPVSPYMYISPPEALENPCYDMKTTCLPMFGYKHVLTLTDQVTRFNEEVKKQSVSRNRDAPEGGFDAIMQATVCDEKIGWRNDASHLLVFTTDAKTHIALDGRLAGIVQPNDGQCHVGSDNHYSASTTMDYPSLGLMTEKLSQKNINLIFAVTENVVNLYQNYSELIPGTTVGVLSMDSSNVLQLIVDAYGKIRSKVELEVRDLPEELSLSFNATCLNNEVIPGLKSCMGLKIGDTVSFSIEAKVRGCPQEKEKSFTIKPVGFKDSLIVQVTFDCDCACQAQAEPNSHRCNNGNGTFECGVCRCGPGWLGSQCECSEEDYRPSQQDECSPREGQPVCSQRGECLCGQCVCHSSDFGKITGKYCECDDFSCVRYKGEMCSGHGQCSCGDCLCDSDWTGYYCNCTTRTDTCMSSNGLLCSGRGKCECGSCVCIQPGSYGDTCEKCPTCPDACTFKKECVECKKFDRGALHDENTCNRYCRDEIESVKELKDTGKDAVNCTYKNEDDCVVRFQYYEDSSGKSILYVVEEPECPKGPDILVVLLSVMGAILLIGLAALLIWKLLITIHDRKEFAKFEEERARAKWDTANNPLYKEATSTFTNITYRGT

With “GRGESP: reference peptide, structure given by standard single letter designation for amino acids”, in experiment [1], the “ability to inhibit avb3 binding” value is “inactive at 100 μM”. Turning to “Calcitonin: reference compound of the osteoclast pitting assay; used as anti-resorptive in the clinic (CGNLSTCMLGTYTQDLNKFHTFPQTSIGVGAP-NH2; disulfide 1-7; ends not checked; UniProt P01257 85-116, looked up)”, the osteoclast inhibitory activity result in the experiment on osteoclasts is recorded as “significant osteoclast inhibitory activity”.
